Laboratory results from patent US20100158808A1, “Altered Activity of Toll-Like Receptors” (priority 2003, published 2010).

Molecular target: T1, TLR4 (Mus musculus, UniProt Q9JHF9+Q9QUK6)
T1 sequence (Q9QUK6 26-835): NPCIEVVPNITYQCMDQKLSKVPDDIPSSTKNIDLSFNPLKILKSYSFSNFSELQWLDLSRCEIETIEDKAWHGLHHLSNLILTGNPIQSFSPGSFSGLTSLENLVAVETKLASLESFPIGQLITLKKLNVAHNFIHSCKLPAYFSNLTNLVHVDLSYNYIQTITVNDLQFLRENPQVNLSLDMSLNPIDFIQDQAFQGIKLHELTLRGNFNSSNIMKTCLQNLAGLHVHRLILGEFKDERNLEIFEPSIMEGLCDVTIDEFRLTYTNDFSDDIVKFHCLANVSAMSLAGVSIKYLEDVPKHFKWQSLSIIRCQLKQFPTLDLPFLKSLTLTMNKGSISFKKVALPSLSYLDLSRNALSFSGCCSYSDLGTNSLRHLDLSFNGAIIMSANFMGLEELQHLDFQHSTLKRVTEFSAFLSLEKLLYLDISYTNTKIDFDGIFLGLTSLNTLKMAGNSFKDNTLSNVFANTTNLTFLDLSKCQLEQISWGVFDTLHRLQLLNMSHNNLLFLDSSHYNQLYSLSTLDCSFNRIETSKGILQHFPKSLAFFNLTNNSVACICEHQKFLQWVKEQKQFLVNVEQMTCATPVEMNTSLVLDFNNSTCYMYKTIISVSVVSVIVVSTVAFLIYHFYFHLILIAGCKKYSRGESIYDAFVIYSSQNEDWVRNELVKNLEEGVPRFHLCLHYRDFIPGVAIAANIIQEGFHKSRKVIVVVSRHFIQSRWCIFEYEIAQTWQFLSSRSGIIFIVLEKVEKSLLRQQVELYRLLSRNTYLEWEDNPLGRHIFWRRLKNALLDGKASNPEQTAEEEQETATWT
T1 sequence (Q9JHF9 19-160): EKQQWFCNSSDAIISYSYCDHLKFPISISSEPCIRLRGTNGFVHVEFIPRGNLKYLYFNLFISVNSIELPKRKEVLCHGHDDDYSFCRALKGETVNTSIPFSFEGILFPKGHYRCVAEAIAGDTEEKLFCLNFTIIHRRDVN
Experiment: NFκB-luciferase reporter assay in HEK 293 cells stably expressing TLR4, MD2 and/or CD14
Assay type: cell-based, murine
Design: expressed in transfected cells; host or cells: HEK 293
Description: Model ECM environment. Tissue culture plates were coated with ECM as follows. PAEC were seeded into 6-well (3×10^5 cells/well), 24-well (5×10^4 cells/well) or 100 mm (2×10^5 cells) fibronectin-coated tissue culture plates (BD Biosciences, San Jose, Calif.) in DMEM (Invitrogen) containing 10% fetal bovine serum supplemented with penicillin and streptomycin and 4% w/v of Dextran 40. The cell cultures were incubated at 37° C. in 5% CO2 humidified atmosphere for seven days and were supplemented with […] on day three and day five. After 7 days, endothelial cells were washed once with phosphate buffered saline (PBS) and lysed by exposure to 0.5% w/v Triton X-100 and 20 mM NH4OH in PBS (pH 7.4) at 37° C. for 20 minutes (Bonifacino, 1998). The wells were then washed 4 times with PBS (pH 7.4) and inspected microscopically to ensure removal of the cells. Plates were used immediately or were stored in PBS (pH 7.4) with […] at 4° C.
HEK 293 cells were stably transfected with the TLR4 and MD2 or CD14 expression plasmids using Superfect (Qiagen, Valencia, Calif.) following the manufacturer's instructions. HEK 293 cells expressing TLR4 and MD2 or CD14 were obtained by culturing the transfected cells with appropriate antibiotic selection medium, and were cloned by limiting dilution in the selection medium. HEK 293 cells expressing TLR4, MD2 and CD14 were generated by transfecting HEK 293 cells that expressed TLR4 and MD2 with the CD14 expression plasmid, and selecting clones using appropriate antibiotic containing medium. Cell lines expressing TLR4 and MD2 and/or CD14 were then maintained in DMEM supplemented with 10% fetal bovine serum and the appropriate selection antibiotics. Control cell lines were transfected with empty expression vectors and incubated in selection conditions as described above. Selected clones were tested for cell surface expression of the TLR4/MD2 complex and CD14 by flow cytometry using monoclonal antibodies specific for the TLR4/MD2 complex or CD14.
NFκB-luciferase reporter assays. Activation of NFκB was measured using a NFκB-luciferase reporter assay. HEK 293 cell lines stably expressing TLR4, MD2 and/or CD14, or control cells were seeded into 24 well tissue culture plates (2×10^5 cells/well) in 1.0 ml DMEM containing 10% fetal bovine serum and penicillin and streptomycin. The cells were allowed to adhere to the culture wells at 37° C. overnight and were then transfected with […] NFκB-firefly-luciferase using Superfect Transfection Reagent (Qiagen). Following transfection, the cells were washed once with phosphate buffered saline and cultured for 24 hours at 37° C. in 1.0 ml DMEM containing 0.5% fetal bovine serum. After various treatments, the culture medium was aspirated and the cells were washed once with PBS. The cells were lysed in […] Passive Lysis Buffer (Promega) with rocking at room temperature for 15 minutes. Renilla- and Firefly-luciferase were assayed simultaneously using the Dual-Luciferase Reporter Assay System (Promega) and a TD-20/20 luminometer (Turner Designs, Sunnyvale, Calif.). Activation of NFκB was reported as a ratio of the firefly luciferase activity to the constitutively expressed Renilla luciferase internal control, and is the mean of triplicate wells.
To determine whether and under what conditions HS stimulates TLR4, various combinations of TLR4, MD2 and CD14, components of the putative TLR4 receptor complex, were stably expressed in HEK 293 cells and the effect of HS on TLR4 signaling in the transfected cells was examined (FIG. 1). The HEK 293 cells expressing receptor components were transiently transfected with a NFκB-firefly luciferase reporter construct along with a Renilla-luciferase internal control reporter construct. […]

[1] = HEK 293 cells lacking TLR4 and MD2 or CD14
[2] = HEK 293 cells that expressed TLR4, MD2, and CD14

Row | Substance | NFκB reporter response to elastase alone (HEK/TLR4(+) cells cultured in ECM, elastase 0.1 U/ml, no HS) | NFκB reporter response to elastase alone (HEK/TLR4(+) cells cultured on ECM, elastase 0.3 U/ml) | Activation in response to HS relative to cells not treated with elastase (HEK/TLR4(+) cells on ECM, elastase 0.1 U/ml plus HS) | Activation of reporter expression after elastase pre-treatment and treatment with HS or LPS (HEK/TLR4(+) cells on PAEC ECM, versus control cells not pre-treated) | NFκB reporter response to elastase (HEK/TLR4(+) cells on fibronectin, elastase 0.1 or 0.3 U/ml) | Activation of NFκB-luciferase reporter [1] | Activation of NFκB-luciferase reporter [2] | Effect of nitrous acid treatment on ability to stimulate TLR4 (HEK/TLR4(+) cells, nitrous acid pH 4.0 or pH 1.5)
1 | elastase: pancreatic elastase (Calbiochem; type IV porcine pancreatic elastase, Sigma-Aldrich), protease that cleaves ECM proteins | did not respond | responded even without addition of HS | 2 fold | greater | did not respond to either concentration of elastase | – | – | –
2 | heparan sulfate [HS] | – | – | – | – | – | did not respond | activated | –
3 | lipopolysaccharide [LPS] | – | – | – | – | – | did not respond | activated | did not affect
